# Assay results published in paper PMC6232179.
# Biological target: COX-2 (prostaglandin endoperoxide synthase 2, PTGS2), purified His-tagged protein (UniProt P35354)
# Experiment: SPR; COX-2 immobilised on a CM5 chip, cyclosporine A flowed at increasing concentrations; 10 mM Hepes pH 7.2, 150 mM NaCl, 1 mM EDTA, 0.005% P20, 2% ethanol; 25 °C, 30 µl/min; 1:1 Langmuir model; triplicate
# Sequence of COX-2 (prostaglandin endoperoxide synthase 2, PTGS2), purified His-tagged protein (P35354 18-604): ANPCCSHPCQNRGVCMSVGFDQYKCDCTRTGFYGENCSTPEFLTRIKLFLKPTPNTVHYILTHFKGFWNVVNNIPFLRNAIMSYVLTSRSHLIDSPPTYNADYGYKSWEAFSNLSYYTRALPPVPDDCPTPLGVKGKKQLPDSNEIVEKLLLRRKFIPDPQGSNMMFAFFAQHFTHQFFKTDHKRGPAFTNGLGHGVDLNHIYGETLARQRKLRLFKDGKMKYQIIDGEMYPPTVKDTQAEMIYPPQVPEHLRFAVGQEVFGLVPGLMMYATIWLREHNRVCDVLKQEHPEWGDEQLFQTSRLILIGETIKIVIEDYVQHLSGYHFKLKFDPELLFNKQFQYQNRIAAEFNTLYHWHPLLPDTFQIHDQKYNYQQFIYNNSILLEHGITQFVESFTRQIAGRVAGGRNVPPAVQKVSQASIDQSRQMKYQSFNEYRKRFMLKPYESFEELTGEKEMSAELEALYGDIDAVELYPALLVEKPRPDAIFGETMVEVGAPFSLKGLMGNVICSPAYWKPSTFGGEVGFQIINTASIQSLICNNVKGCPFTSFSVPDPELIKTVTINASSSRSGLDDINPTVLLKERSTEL
substance,measurement,value
Cyclosporine A (peptide),Kd,895 nM
